From patent US9994626B2, “Stable polypeptides binding to human complement C5” (Swedish Orphan Biovitrum AB (publ), priority 2013, dated 2018)

Assays:
[1] = 3 month stability test at 37° C., RPC; format: physicochemical
Description: The 2 weeks data from example 2 is included in Table VIII below to make the interpretation easier.

[2] = Accelerated stability study, 2 weeks at 37° C., SDS-PAGE and Reversed Phase HPLC (RPC)
Description: The stability was measured by the appearance of new variants after the stability testing by SDS-PAGE and Reversed Phase HPLC (RPC). In both analyses the initial sample and the one subjected to the stability study were run in parallel. For the SDS-PAGE, 7.5 μg protein was loaded into each well.
The purified proteins were formulated in 25 mM NaP/125 mM NaCl pH 7.0 and subjected to an accelerated stability study for 2 weeks at 37° C. The stability was measured by the appearance of new variants after the stability testing by SDS-PAGE and Reversed Phase HPLC (RPC). In both analyses the initial sample and the one subjected to the stability study were run in parallel. For the SDS-PAGE, 7.5 μg protein was loaded into each well.

[3] = after 2 weeks at 37° C., 25 mM NaP/125 mM NaCl pH 7.0

B1: PSI0383: C5 binding compound with N52S, D53E, D60E and loop [L2] substitutions D36R, D37Q, S39E (protein)
chain: AEAKYAKEVLEAWDEIDRLPNLTIEQWLAFINKLDRQPEQSSELLSEAKKLSESQAPKVEGSLAEAKEAANAELDSYGVSDFYKRLIDKAKTVEGVEALKDAILAALP
modifications: Modified bacterial sequence
For B1, the “3 months, 37° C. Main peak (% of total protein)” value ([1]; RPC, 3 months, 37° C.) was 59 % of total protein, the “proportion of protein in the original form after 3 months at 37° C. versus PSI0242 after 2 weeks” value ([1]; result in words) was “higher proportion of protein in the original form” and the “stability when compared with PSI0242” value ([2]; 2 weeks at 37° C., conclusion in words) was “increased stability”. The “Main peak (% of total protein)” value ([2]; RPC after 2 weeks at 37° C., 25 mM NaP/125 mM NaCl pH 7.0) was 91 % of total protein, the “2 weeks, 37° C. Main peak (% of total protein)” value ([2]; RPC, 2 weeks, 37° C., data from example 2) was 91 % of total protein and the RPC post peaks [2, 3] was 0. For the same molecule, the RPC prepeaks [2, 3] was 0 and the SDS-PAGE bands [2, 3] was 1.
